In US20120122711A1, “SCREENING OF BIOPOLYMERS” (priority 2009, published 2012):
Each block holds one substance with its values, some of them ahead of it. Non-standard residues stand in square brackets, D forms with d. Primed or numbered codes have the meaning given here. No end group written: not given here. PEG2′ = PEG2 tether (Merck, 20 atoms)

Tests used:
[1] = target: bovine carbonic anhydrase II (bovine) (UniProt P00921); assay: dot blot, biotinylated peptide on spotted bCAII
[2] = target: bovine carbonic anhydrase II (bovine) (UniProt P00921); assay: dot blot, peptide with biotin at C-terminus on spotted bCAII
[3] = target: T1, bovine carbonic anhydrase II (bCAII) (Bos taurus, UniProt P00921); assay: Surface Plasmon Resonance (SPR) of peptide ligands on immobilized bCAII; assay type: binding; settings: for response in SPR sensogram, in words: compared with other peptide ligands; for maximum response (Rmax): highest concentration (1.0 μM), bCAII immobilized to RU of 1000, FIG. 14; for interaction with bCAII: acetylated peptides, FIG. 9; for association-dissociation pattern in SPR sensogram: in words
T1 sequence (P00921 whole entry): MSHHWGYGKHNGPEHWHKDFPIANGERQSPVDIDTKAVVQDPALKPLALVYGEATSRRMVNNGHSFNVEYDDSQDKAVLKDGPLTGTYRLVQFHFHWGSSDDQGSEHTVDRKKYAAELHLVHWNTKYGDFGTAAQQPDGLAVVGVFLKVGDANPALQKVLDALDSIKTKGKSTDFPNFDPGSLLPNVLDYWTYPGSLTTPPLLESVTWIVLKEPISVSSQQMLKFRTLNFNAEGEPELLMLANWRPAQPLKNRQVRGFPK
Excerpt: Validation by SPR. The peptide ligands were investigated for their binding affinity towards bCAII using SPR as a validation tool. The target marker was immobilized onto CM5 sensor chip to a response unit (RU) of 1000 in a Biacore T100 system. Each peptide solution of a series of concentrations was eluted through the surface of the chip to observe the response as well as the dissociation pattern mediated by treatment of glycine-hydrochloride. As depicted in FIG. 14, the maximum responses (Rmax) by the peptide ligands increased in a stepwise fashion from the hexamer-2 to the decamers and then to the tetradecamer (8→40→140) at the highest concentration (1.0 μM).
Surface Plasmon Resonance (SPR) experiments to measure affinity of the re-synthesized peptide ligands. Affinity measurements were performed using a Biacore T100 system and research grade CM5 sensor chips (GE Heathcare). The instrument was primed with HBS-EP+ (GE Heathcare) buffer. Flow cell 1 (or 3) was used as a reference to subtract nonspecific binding, drift, and the bulk refractive index, while flow cell 2 (or 4) was immobilized with the target biomarker (bCAII) following standard procedures. A 1:1 mixture of 0.4 M EDC and 0.1 M NHS was used to activate flow cell 2 (or 4), and 0.1 mg/mL bCAII solution was injected. Blocking of the remaining activated groups was done with a 1 M solution of ethanolamine (pH 8.5). bCAII was immobilized onto the sensor chip surface by […] (RU). The instrument was then primed using running buffer (HBS-EP+). Each of the 6mer ligand candidates identified were dissolved in HBS-EP+buffer to produce 5 μM peptide stock solutions for each peptide, which were serially diluted by a factor of 2 to produce a concentration series down to 2 nM. For a given affinity measurement, these series of peptide solutions successively were injected into flow cell 2 (or 4) for […] of contact time, 5 min of dissociation time, and […] of stabilization time using a flow rate of 100 μL/min at 25° C. Flow cell 2 (or 4) was regenerated by glycine 2.5 (GE Healthcare) after injection of each peptide solution.

[4] = target: T1, bovine carbonic anhydrase II (bCAII); assay: Dot blot assay of biotin-conjugated peptide ligands on deposited bCAII; assay type: binding; settings: for dot blot affinity/potency towards bCAII, in words: serial reduction of deposited bCAII, peptide 0.5 μM, compared with precursor
Experimental: Dot blot assays to measure affinity of the re-synthesized peptide ligands conjugated to biotin. […] A solution of bCAII was prepared as 10 mg/mL stocks in PBS buffer (pH 7.4). A serial dilution of the mother solution was applied to a nitrocellulose membrane, typically ranging from 2 μg to 5 ng per spot. The membrane was blocked at room temperature for 2 h in 5% nonfat milk/TBS-T. The membrane was then washed with TBS-T. […] After washing three times with TBS-T for 10 min, 1:3000 streptavidin-HRP (Abcam) prepared in 0.5% milk/TBS-T was added to the membrane and incubated for 2 h. After washing three times with TBS-T for 10 min, the membrane was treated with chemiluminescent reagents (Amersham ECL plus Western blotting detection reagents, GE Healthcare) and then immediately developed on film.

[5] = target: human carbonic anhydrase II (hCAII) (Homo sapiens, UniProt P00918); assay: Dot blot experiments of peptide ligands towards hCAII; assay type: binding; settings: FIG. 9

Sequence of bovine carbonic anhydrase II (bovine) (P00921 2-260 limits assumed): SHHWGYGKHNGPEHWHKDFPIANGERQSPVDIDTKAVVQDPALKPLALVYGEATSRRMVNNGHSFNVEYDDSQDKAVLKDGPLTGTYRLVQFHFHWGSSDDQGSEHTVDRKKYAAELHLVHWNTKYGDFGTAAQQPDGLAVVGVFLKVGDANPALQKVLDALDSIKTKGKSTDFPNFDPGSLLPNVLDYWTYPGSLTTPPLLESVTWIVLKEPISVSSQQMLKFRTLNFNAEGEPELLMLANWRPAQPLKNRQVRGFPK

lowest amount of deposited bCAII giving a developed spot [1]: 20 ng
Substance: decamer-3 (ryrr-ifvykr) (peptide)

lowest amount of deposited bCAII giving a developed spot [2]: 20 ng
Substance: decamer-4 (ifvykr-wryp) (peptide)

response in SPR sensogram, in words [3]: even better property than hexamer-1 | maximum response (Rmax) [3]: 8 RU | dot blot affinity/potency towards bCAII, in words [4]: even better property than hexamer-1
Substance: ifvykr ([dI][dF][dV][dY][dK][dR]) [hexamer-2]

dot blot affinity/potency towards bCAII, in words [4]: most prominent
Substance: ifvykr-wryp ([dI][dF][dV][dY][dK][dR][dW][dR][dY][dP]) [decamer-4, 11]

interaction with bCAII [3]: interacting with bCAII | response in SPR sensogram, in words [3]: higher response unit (RU) | association-dissociation pattern in SPR sensogram [3]: much more antibody-like behavior | dot blot potency towards hCAII compared with bCAII [5]: similarly potent | dot blot affinity/potency towards bCAII, in words [4]: more potent
Substance: kvtflhrywf (Ac-[dK][dV][dT][dF][dL][dH][dR][dY][dW][dF]-NH2) [decamer-N1, 8, D-amino acids, acetylated]

interaction with bCAII [3]: interacting with bCAII | affinity (KD) in a Surface Plasmon Resonance (SPR) study ([3]; first-generation anchor peptide against bCAII): a few | dot blot potency towards hCAII compared with bCAII [5]: more potent
Substance: lhrywf [hexamer-1]

dot blot affinity/potency towards bCAII, in words [4]: most prominent
Substance: ryrr-ifvykr ([dR][dY][dR][dR][dI][dF][dV][dY][dK][dR]) [decamer-3, 10]

maximum response (Rmax) [3]: 140 RU | association-dissociation pattern in SPR sensogram [3]: more antibody-like pattern | dot blot affinity compared with the two precursors decamer-N2 and decamer-C2 ([4]; peptide ligand 0.1 μM): not dramatically improved | dot blot potency compared with initial anchor hexamer-2 ([4]; peptide ligand 0.1 μM): far more potent
Substance: ryrr-ifvykr-wryp ([dR][dY][dR][dR][dI][dF][dV][dY][dK][dR][dW][dR][dY][dP]-{PEG2′-biotin}) [tetradecamer-N2C, 12]
